Our source for the Kd and IC50 values is the Immune Epitope Database (IEDB).

Experiment [1] deals with HLA-B*15:03. Nature of the experiment: IEDB peptide-MHC binding, purified MHC/competitive/radioactivity; filed as Kd, often an IC50 or EC50 that approximates it; ≥ and ≤ were set here for values at or beyond the usual limits of such assays.
The target of experiment [2] is HLA-B*57:01. Described as above.
Experiment [3] has as its target HLA-A*30:02. The description is as above. The conditions noted are these: source organism: Dengue virus 3 Martinique/1243/1999.
Experiment [4] deals with HLA-A*26:01. The experiment is described as above.
Experiment [5] addresses HLA-B*53:01. The experiment is described as above. The note with it: source organism: Dengue virus 1 Brazil/97-11/1997.
Experiment [6] deals with HLA-A*02:01. The experiment in a line: IEDB peptide-MHC binding, purified MHC/competitive/fluorescence; ≥ and ≤ were set here for values at or beyond the usual limits of such assays.
The target of experiment [7] is HLA-A*03:01. Described as above.
Experiment [8] has as its target HLA-A*11:01. Described as above.
In experiment [9] the target is HLA-A*02:02. Nature of the experiment: IEDB peptide-MHC binding, purified MHC/competitive/radioactivity; filed as Kd, often an IC50 or EC50 that approximates it; ≥ and ≤ were set here for values at or beyond the usual limits of such assays.
Experiment [10] has as its target HLA-A*02:01. The description is as above.
The target in experiment [11] is HLA-A*02:06. Described as above.
Experiment [12] deals with HLA-A*02:03. Described as above.
Experiment [13] addresses HLA-A*68:02. The experiment is described as above.
Experiment [14] has as its target HLA-B*51:01. The experiment is described as above. The note with it: source organism: Dengue virus 2 Jamaica/1409/1983.
The target in experiment [15] is HLA-A*68:01. The description is as above. The conditions noted are these: source organism: Vaccinia virus WR.
For experiment [16], the target named is HLA-A*33:01. Described as above. The conditions noted are these: source organism: Vaccinia virus WR.
Experiment [17] addresses HLA-A*31:01. Described as above. The note with it: source organism: Vaccinia virus WR.
For experiment [18], the target named is HLA-A*30:01. The experiment is described as above.
Experiment [19] deals with HLA-B*08:01. The description is as above.
The target in experiment [20] is HLA-A*32:01. The experiment is described as above.
Experiment [21] concerns the target HLA-B*15:01. The description is as above.
The target of experiment [22] is HLA-A*24:02. The experiment in a line: IEDB peptide-MHC binding, purified MHC/competitive/fluorescence; ≥ and ≤ were set here for values at or beyond the usual limits of such assays.
Where [23] appears, read: source organism: Vaccinia virus Copenhagen.
[24] abbreviates: source organism: Dengue virus 3 Martinique/1243/1999.
[25] abbreviates: source organism: Vaccinia virus WR.
Setting [26] is: source organism: Dengue virus 1 Brazil/97-11/1997.
Setting [27] is: source organism: Zaire ebolavirus.
Where [28] appears, read: source organism: Sudan ebolavirus.
Setting [29] is: source organism: Human immunodeficiency virus type 1 (CLONE 12).
The mark [30] stands for this setting: source organism: Dengue virus 2 Jamaica/1409/1983.
The mark [31] stands for this setting: source organism: Trypanosoma cruzi.
Setting [32] is: source organism: Lymphocytic choriomeningitis virus (strain Armstrong) (clone 53b).
[33] abbreviates: source organism: Lassa virus GA391.
The mark [34] stands for this setting: source organism: Vaccinia virus.
Setting [35] is: source organism: Dengue virus 4 Philippines/H241/1956.

For the sequence LKSNADWFF, the Kd in [1] (setting [23]) is 0.0102 µM.
As for IAIGIITLY, the results for the Kd in experiment [2] (setting [24]), in experiment [3] and in [4] (setting [24]) were 0.00362 µM, 2.68 µM and 0.013 µM, respectively.
Regarding RAYMATTIL, in experiment [1] (setting [25]), the Kd was found to be 0.0175 µM.
In the case of IGIGILLTW, the Kd was found to be 0.272 µM in experiment [2] (setting [26]) and 5.45 µM in experiment [5].
For the sequence FTQQALSSF, the Kd in [1] (setting [25]) stood at 0.00643 µM.
As for ITGGRRTRR, the IC50 in [6] (setting [27]) is no less than 177 µM; in experiment [7] (setting [27]), 6.85 µM; in experiment [8] (setting [27]), 9.09 µM.
Take RISDRATRK: the figures for the IC50 in experiment [7] (setting [28]) and in experiment [8] (setting [28]) were 1.86 µM and 0.651 µM, respectively.
On to PLTFGWCYKL, for which the Kd was no less than 29.4 µM in experiment [9] (setting [29]); 6.85 µM in [10] (setting [29]); 13.2 µM in experiment [11] (setting [29]); 19.3 µM in [12] (setting [29]); no less than 20.1 µM in experiment [13] (setting [29]).
For the sequence IQYDRRSFF, in experiment [1] (setting [23]), the Kd was determined as 0.000154 µM.
Take FSPGTSGSPI: the results for the Kd in [14] and in experiment [13] (setting [30]) were 12.8 µM and 0.294 µM, respectively.
On to SLSHDFTLV, for which the Kd in experiment [9] (setting [31]) was found to be 0.000305 µM; in experiment [10] (setting [31]), 0.0126 µM; in [11] (setting [31]), 0.00774 µM; in [12] (setting [31]) it was 0.00165 µM; in experiment [13] (setting [31]), 0.6 µM.
As to KSISKSNAK, the Kd is 0.101 µM in experiment [15], no less than 33.9 µM in experiment [16] and 0.000454 µM in experiment [17]. In addition, the IC50 in experiment [7] (setting [23]) came to 3.02 µM; in experiment [8] (setting [23]), 1.68 µM.
As to ILMGLDKGW, the Kd in experiment [2] (setting [26]) was 0.049 µM.
Consider STHKLSLTK, for which the values for the concentration for half-maximal inhibition (IC50) in experiment [6] (source organism: Variola virus), in experiment [7] (source organism: Variola virus) and in [8] (source organism: Variola virus) were no less than 255 µM, 2.93 µM and 0.193 µM, respectively.
Turning to VLQRNCAAYL, the Kd is 0.018 µM in [9] (source organism: Homo sapiens), 0.0957 µM in experiment [10] (source organism: Homo sapiens), 0.0948 µM in [12] (source organism: Homo sapiens) and no less than 60 µM in [13] (source organism: Homo sapiens).
Turning to ISTYPGNTF, in experiment [1] (setting [25]), the Kd was 0.000479 µM.
As for ALPHIIDEV, the Kd in [9] (setting [32]) was 0.013 µM; in [11] (setting [32]), 0.066 µM; in experiment [12] (setting [32]), 0.00034 µM; in experiment [13] (setting [32]), 0.179 µM.
For the sequence LGFLNEDHW, the Kd in [2] (source organism: Murray valley encephalitis virus (strain MVE-1-51)) was found to be 0.172 µM.
On to KLLEGEESRI, for which the Kd in experiment [13] (source organism: Homo sapiens) is no less than 60 µM.
Regarding LTSRDGEPRM, the results for the Kd in experiment [18] (setting [24]) and in [2] (setting [24]) were 10.9 µM and 1.32 µM, respectively.
With ETILELTDAL, the Kd in experiment [4] (setting [30]) was found to be 0.277 µM; in experiment [13] (setting [30]) it was 0.134 µM.
Regarding GIYIEGLMH, the IC50 in experiment [6] (setting [27]) is no less than 180 µM; in [7] (setting [27]), 16.1 µM; in experiment [8] (setting [27]), 9.23 µM.
For IQTMDGQEL, the Kd in experiment [1] (setting [25]) is 0.144 µM.
For TSVGKLVHQV, in experiment [13] (setting [26]), the Kd was 0.0371 µM.
Consider IKVLVEHGF, for which the dissociation constant Kd was no less than 77.7 µM in experiment [19] (setting [25]); 11.3 µM in [20] (setting [25]); 5.93 µM in experiment [18] (setting [25]); 0.473 µM in experiment [1] (setting [25]); 9.69 µM in experiment [21] (setting [25]).
Turning to VRKNFTSSF, in [1] (setting [25]), the Kd came to 0.192 µM.
For ILAADLEKL, the dissociation constant Kd in [9] (setting [33]) turned out to be 0.0323 µM; in experiment [11] (setting [33]), 0.195 µM; in experiment [12] (setting [33]) it was 0.02 µM; in experiment [13] (setting [33]), 4.29 µM.
For the sequence LRYLLFGIK, the IC50 in experiment [22] (setting [34]) was 13.6 µM; in [6] (setting [34]), no less than 825 µM; in experiment [7] (setting [34]), 15.4 µM; in [8] (setting [34]) it was no less than 128 µM.
As for AEMMAPSMF, the Kd in experiment [1] (setting [25]) stood at 0.0172 µM.
Turning to RKISSKNSM, the Kd in experiment [1] (setting [25]) is 0.000114 µM.
Take GTAKLRWFV: the Kd in experiment [13] (setting [26]) came to 0.0307 µM.
In the case of MLMFIFTGI, the Kd was 0.265 µM in experiment [19] (setting [25]); 1.45 µM in [20] (setting [25]); 0.281 µM in experiment [18] (setting [25]); 1.01 µM in [1] (setting [25]); 1.41 µM in [21] (setting [25]).
Regarding YAFSKYMSF, the Kd in experiment [1] (setting [25]) came to 0.00177 µM; in experiment [21] (setting [25]) it was 0.00899 µM.
For IKGTSGTEK, the IC50 in experiment [7] (setting [34]) was no less than 187 µM.
With IVYSLVTTI, the Kd in experiment [19] (setting [25]) worked out at 13.6 µM; in [20] (setting [25]), 0.0036 µM; in experiment [18] (setting [25]), 0.016 µM; in [1] (setting [25]) it was 1.86 µM; in experiment [21] (setting [25]), 0.542 µM.
As for TTIAVSMANI, the Kd in [4] (setting [30]) was 3.51 µM; in experiment [13] (setting [30]) it was 0.00387 µM.
As for TTANWLWAL, the Kd in experiment [11] (setting [35]) amounted to 0.00593 µM; in experiment [4] (setting [35]), 3.08 µM; in experiment [13] (setting [35]), 0.00636 µM.
For the sequence RKVKSYNYM, the Kd in experiment [1] (setting [25]) stood at 0.00258 µM.
On to MAVGLVSILA, for which the Kd in experiment [13] (setting [24]) stood at 0.00323 µM.
Turning to RLHSNTILK, the equilibrium dissociation constant (Kd) in experiment [19] (setting [25]) is no less than 38.6 µM; in experiment [20] (setting [25]) it was 6.35 µM; in [18] (setting [25]), 0.0485 µM; in experiment [1] (setting [25]) it was 8.54 µM; in experiment [21] (setting [25]) it was 2.22 µM.
In the case of DQEKKILMN, the results for the IC50 in experiment [22] (setting [27]), in experiment [7] (setting [27]) and in experiment [8] (setting [27]) were no less than 303 µM, no less than 386 µM and no less than 193 µM, respectively.
For the sequence LLGLWGFAAQ, the Kd was determined as 1.24 µM in [9] (setting [31]); 1.1 µM in experiment [10] (setting [31]); 0.462 µM in experiment [11] (setting [31]); 0.394 µM in experiment [12] (setting [31]); 1.82 µM in experiment [13] (setting [31]).
In the case of SLNSIFNTF, the Kd in experiment [19] (setting [23]) was no less than 30.6 µM; in experiment [20] (setting [23]), 0.0138 µM; in experiment [1] (setting [23]), 0.209 µM; in experiment [21] (setting [23]), 0.00222 µM.
For ASLTPKAQR, the IC50 in experiment [7] (source organism: Variola virus) turned out to be 2.32 µM; in [8] (source organism: Variola virus) it was 0.29 µM.
Regarding HSFEEMYRH, the IC50 in experiment [7] (setting [27]) was found to be 49.4 µM; in experiment [8] (setting [27]) it was 3.29 µM.
For the sequence GKRSNTTGK, the figures for the IC50 in experiment [6] (setting [27]) and in experiment [7] (setting [27]) were no less than 14300 µM and 52.6 µM, respectively.
